Common to all, as to experiment: purified protein
One data set deals with C/C(C=O)=C\CC/C(C)=C/C=O. Particulars: 250 μM NADPH, 50 mM HEPES/NaOH pH 7.0, 100 mM NaCl, 25 °C, 0.1% tetrahydrofuran.
The test system of data set [1] is CC(=O)[C@H]1CC[C@H]2[C@@H]3CCC4=CC(=O)CC[C@]4(C)[C@H]3CC[C@]12C. The settings on record: 250 μM NADPH, 50 mM HEPES/NaOH pH 7.0, 100 mM NaCl, 25 °C, 1.5% ethanol.
The test system is the same in data set [2]. In kind it is biochemical, Digitalis purpurea. The settings on record: 250 μM NADPH, 50 mM HEPES/NaOH pH 7.0, 100 mM NaCl, 25 °C, 1.5% ethanol.
Data set [3] shares this test system. In kind it is biochemical, Digitalis lanata. Particulars: 250 μM NADPH, 50 mM HEPES/NaOH pH 7.0, 100 mM NaCl, 25 °C, 1.5% ethanol.

Broadly, the Km is the concentration of substrate that gives half-maximal velocity. As a reminder, the kcat is the maximal rate divided by the concentration of active sites. In general, kcat/Km refers to the turnover number divided by the Michaelis constant.

“Physcomitrella patens PRISE (Physcomitrium patens)”: in the data set with C/C(C=O)=C\CC/C(C)=C/C=O, the Michaelis constant (Km) is 31.3 ± 8.6 µM, the kcat was found to be 0.066 ± 0.005 s⁻¹ and the catalytic efficiency (kcat/Km) amounted to 2100 M⁻¹ s⁻¹. Moreover, the Michaelis-Menten constant (Km) in data set [1] was 9.5 ± 3.1 µM.
Take “Digitalis purpurea 2 (Digitalis purpurea)”: the Michaelis constant (Km) in data set [2] turned out to be 6.3 ± 1.9 µM.
As to “Digitalis lanata 1 (PRISE1, progesterone 5β-reductase) (Digitalis lanata)”, the Michaelis-Menten constant (Km) in data set [3] was found to be 6.5 ± 2.0 µM.

The values above are taken from publication PMC7467569, “The Progesterone 5β-Reductase/Iridoid Synthase Family: A Catalytic Reservoir for Specialized Metabolism across Land Plants” (ACS Chemical Biology, 2020).
